Results: US20090118178A1 (7TM PHARMA A S, published 2009)
Where no end group is shown, it is not given here.

T1: human Y2 receptor (human, UniProt P49146 1-381)
T1 sequence (looked up): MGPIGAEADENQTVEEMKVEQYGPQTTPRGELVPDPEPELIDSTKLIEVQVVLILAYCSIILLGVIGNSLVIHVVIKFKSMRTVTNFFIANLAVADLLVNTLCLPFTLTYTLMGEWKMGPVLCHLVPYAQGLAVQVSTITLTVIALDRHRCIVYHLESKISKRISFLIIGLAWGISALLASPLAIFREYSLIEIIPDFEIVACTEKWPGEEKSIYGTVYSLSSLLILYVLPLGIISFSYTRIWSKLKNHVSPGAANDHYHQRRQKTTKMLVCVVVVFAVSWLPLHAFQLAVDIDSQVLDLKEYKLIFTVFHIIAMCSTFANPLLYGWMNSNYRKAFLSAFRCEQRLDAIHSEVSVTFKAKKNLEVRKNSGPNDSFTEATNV

T2: human Y1 receptor (human, UniProt P25929 1-384)
T2 sequence (looked up): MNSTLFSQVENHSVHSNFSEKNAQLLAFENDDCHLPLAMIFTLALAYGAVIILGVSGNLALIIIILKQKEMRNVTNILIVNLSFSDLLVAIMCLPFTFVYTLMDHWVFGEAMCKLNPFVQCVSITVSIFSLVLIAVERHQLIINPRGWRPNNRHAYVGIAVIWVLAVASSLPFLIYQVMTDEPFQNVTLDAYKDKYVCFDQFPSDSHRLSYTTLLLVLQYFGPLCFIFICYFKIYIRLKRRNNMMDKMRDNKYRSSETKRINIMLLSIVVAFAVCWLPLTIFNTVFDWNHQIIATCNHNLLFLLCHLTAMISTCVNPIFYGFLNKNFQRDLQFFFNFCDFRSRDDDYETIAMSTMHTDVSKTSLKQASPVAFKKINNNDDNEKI


Tests used:
Test in all cases: cell-based or functional assay
human Y4 receptor = human Y4 receptor (human, UniProt P50391 1-375)
Chain of human Y4 receptor (P50391 whole entry): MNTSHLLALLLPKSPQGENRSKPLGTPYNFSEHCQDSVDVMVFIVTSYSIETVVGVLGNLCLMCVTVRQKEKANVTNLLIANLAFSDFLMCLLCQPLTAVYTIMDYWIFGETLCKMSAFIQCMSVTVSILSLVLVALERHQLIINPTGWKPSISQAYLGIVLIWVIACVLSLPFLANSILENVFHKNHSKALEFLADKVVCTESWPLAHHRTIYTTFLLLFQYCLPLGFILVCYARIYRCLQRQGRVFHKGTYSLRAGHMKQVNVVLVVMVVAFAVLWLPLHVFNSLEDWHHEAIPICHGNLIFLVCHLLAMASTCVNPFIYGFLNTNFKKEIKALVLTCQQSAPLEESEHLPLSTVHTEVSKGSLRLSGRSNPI

human Y2 receptor = biological target: T1, human Y2 receptor
human Y1 receptor = biological target: T2, human Y1 receptor

Binder	EC50, inositol phosphate turnover in transfected COS-7 cells (hY4 potency assay) (human Y4 receptor) [nM]	EC50, inositol phosphate turnover in transfected COS-7 cells (hY2 potency assay) (human Y2 receptor) [nM]	EC50, inositol phosphate turnover in transfected COS-7 cells (hY1 potency assay) (human Y1 receptor) [nM]
PLEPVYPGDNATPEQMAQYAADLRRYINNLTRPRY-NH2 [[Asn30]PP2-36]	3.05	> 1000	> 1000
PLEPVYPGDNATPEQMAQYAADLRRYINTLTRPRY-NH2 [[Thr30]PP2-36]	1.07	> 1000	> 1000
PLEPVYPGENATPEQLAQYAADLRRYINTLTRPRY-NH2 [[Glu10, Leu17, Thr30]PP2-36]	1.07	> 1000	> 1000
PLEPVYPGDNATPEQMAQYAADLRRYINALTRPRY-NH2 [[Ala30]PP2-36]	1.04	> 1000	> 1000
PLEPVYPGDNATPEQMAQYAADLRRYINQLTRPRY-NH2 [[Gln30]PP2-36]	0.99	> 1000	> 1000
PLEPVYPGENATPEQMAQYAADLRRYINMLTRPRY-NH2 [[Glu10]PP2-36]	0.91	> 1000	564
